Measured values from patent publication US20220332804A1 (CSL INNOVATION, published 2022).
Changes are numbered by the printed parent chain.

Key:
Assay in all cases: SPR, antibody captured, C2 as analyte;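 note: biacore SPR at 37 °C, anti-C2 mAbs captured via goat anti-human IgG on CM5 chips, double-referenced sensorgrams fit to a 1:1 kinetic or steady-state model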
human C2 P724A = target: T1, human C2 P724A (human, UniProt P06681 21-752)
T1 sequence: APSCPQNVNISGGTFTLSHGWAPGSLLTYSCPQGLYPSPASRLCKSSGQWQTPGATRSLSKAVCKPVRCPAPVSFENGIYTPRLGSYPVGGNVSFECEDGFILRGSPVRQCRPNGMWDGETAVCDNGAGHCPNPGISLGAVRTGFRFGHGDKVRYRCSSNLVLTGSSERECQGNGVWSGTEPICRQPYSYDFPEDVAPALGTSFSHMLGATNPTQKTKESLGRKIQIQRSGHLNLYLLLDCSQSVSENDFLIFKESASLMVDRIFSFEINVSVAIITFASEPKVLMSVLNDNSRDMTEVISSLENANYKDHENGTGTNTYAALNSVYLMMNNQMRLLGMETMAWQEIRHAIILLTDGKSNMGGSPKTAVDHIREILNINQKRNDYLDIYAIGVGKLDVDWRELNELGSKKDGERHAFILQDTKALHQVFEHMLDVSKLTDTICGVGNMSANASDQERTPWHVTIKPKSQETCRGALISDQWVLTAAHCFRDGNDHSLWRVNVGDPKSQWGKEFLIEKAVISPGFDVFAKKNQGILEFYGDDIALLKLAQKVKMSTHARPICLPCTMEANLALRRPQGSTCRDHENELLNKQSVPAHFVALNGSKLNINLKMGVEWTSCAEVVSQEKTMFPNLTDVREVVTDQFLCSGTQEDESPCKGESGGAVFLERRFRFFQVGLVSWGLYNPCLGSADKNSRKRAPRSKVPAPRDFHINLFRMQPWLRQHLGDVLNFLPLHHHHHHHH

human C2 N403A = target: T2, human C2 N403A (human, UniProt P06681 21-752)
T2 sequence: T1 sequence with N383A, A704P

human C2 R434A = target: T3, human C2 R434A (human, UniProt P06681 21-752)
T3 sequence: T1 sequence with R414A, A704P

human C2 R510A = target: T4, human C2 R510A (human, UniProt P06681 21-752)
T4 sequence: T1 sequence with R490A, A704P

B1: RF16-226 (antibody, human IgG4 S228P, lambda)
heavy: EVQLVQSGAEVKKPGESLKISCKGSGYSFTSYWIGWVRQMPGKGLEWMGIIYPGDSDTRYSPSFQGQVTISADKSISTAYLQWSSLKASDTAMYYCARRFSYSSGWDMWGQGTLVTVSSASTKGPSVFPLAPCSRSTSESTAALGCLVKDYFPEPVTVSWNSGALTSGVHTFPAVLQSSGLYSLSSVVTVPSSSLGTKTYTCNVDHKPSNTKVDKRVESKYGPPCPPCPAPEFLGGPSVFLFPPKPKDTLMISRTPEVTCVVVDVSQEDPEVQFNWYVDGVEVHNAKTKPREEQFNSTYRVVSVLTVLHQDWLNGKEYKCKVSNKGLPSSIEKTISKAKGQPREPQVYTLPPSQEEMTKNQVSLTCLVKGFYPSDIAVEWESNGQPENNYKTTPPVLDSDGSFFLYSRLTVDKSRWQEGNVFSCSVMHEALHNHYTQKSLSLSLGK
light: SYELTQPPSVSVSPGQTARITCSGDALTSKYVAWYQQKSGLAPLLVIYEDTRRPSGIPAKFSGSSSGSVATLTISGAHGDDEADYYCYSTDASGHQRVFGGGTKLTVLSQPKAAPSVTLFPPSSEELQANKATLVCLISDFYPGAVTVAWKADGSPVKAGVETTKPSKQSNNKYAASSYLSLTPEQWKSHRSYSCQVTHEGSTVEKTVAPTECS
notes: pH-dependent anti-C2 antibody from a phage display library; also called WT
Kd (human C2 P724A): 397 nM | Kd (human C2 N403A): 10.5 nM | Kd (human C2 R434A): 142 nM | Kd (human C2 R510A): 110 nM
